Several values for one entry are separate records, joined by “and”; a condition that tells them apart may be missing. Equal entries are not always repeated. Where no end group is shown, it is not given here.

The values that follow come from patent publication US20110275122A1.

To fix the notation:
B1: SEQ ID NO: 9 (TPO-mimetic fusion protein of Table 13) (Fc fusion, not shown: a dimerising Fc or GST)
chain: QGCSSGGPTLREWQQCRRMQHS
modifications: cysteine pairing not given here; also: fused to an Fc molecule, side and linker not given here
B2: SEQ ID NO: 11 (TPO-mimetic fusion protein of Table 13) (Fc fusion, not shown: a dimerising Fc or GST)
chain: QGCSWGGPTLKNWLQCVRAKHS
modifications: cysteine pairing not given here; also: fused to an Fc molecule, side and linker not given here
B3: SEQ ID NO: 117 (TPO-mimetic fusion protein of Table 13) (Fc fusion, not shown: a dimerising Fc or GST)
chain: SAIEGPTLRHWLAWRAML
modifications: also: Fc fusion, side and linker not given here
B4: Fc-Loop-(SEQ ID NO: 455) (Fc fusion, part only; not given: Fc and insertion site, part only)
chain, part: CSSGGPTLREWQQCQRAQ
modifications: cysteine pairing not given here; also: peptide inserted in a loop of an Fc
B5: SEQ ID NO: 115 (TPO-mimetic fusion protein of Table 13) (Fc fusion, not shown: a dimerising Fc or GST)
chain: WMMEGPTLRHWLAARARY
modifications: also: Fc fusion, side and linker not given here
B6: SEQ ID NO: 103 (TPO-mimetic fusion protein of Table 13) (Fc fusion, not shown: a dimerising Fc or GST)
chain: YMMEGPTLRHWLATRAGR
modifications: also: Fc fusion, side and linker not given here
B7: SEQ ID NO: 241 (TPO-mimetic fusion protein of Table 13) (Fc fusion, not shown: a dimerising Fc or GST)
chain: ICTEGCTLRLWLAERSRV
modifications: cysteine pairing not given here; also: Fc fused at N- or C-terminus, side and linker not given here
B8: Fc-Loop-(SEQ ID NO: 456) (Fc fusion, part only; not given: Fc and insertion site, part only)
chain, part: CSSGGPTLREWQQCGRAQ
modifications: cysteine pairing not given here; also: peptide inserted in a loop of an Fc
B9: SEQ ID NO: 225 (TPO-mimetic fusion protein of Table 13) (Fc fusion, not shown: a dimerising Fc or GST)
chain: LTMEGPTLRHWLAARATR
modifications: also: Fc fusion, side and linker not given here
B10: SEQ ID NO: 123 (TPO-mimetic fusion protein of Table 13) (Fc fusion, not shown: a dimerising Fc or GST)
chain: WVMEGPTLRHWLAARASL
modifications: also: Fc fusion, side and linker not given here
B11: SEQ ID NO: 128 (TPO-mimetic fusion protein of Table 13) (Fc fusion, not shown: a dimerising Fc or GST)
chain: YYLEGPTLRHWLAARAYL
modifications: also: Fc fusion, side and linker not given here
B12: Fc-Loop-(SEQ ID NO: 454) (Fc fusion, part only; not given: Fc and insertion site, part only)
chain, part: CSSGGPTLREWQQCSRAQ
modifications: cysteine pairing not given here; also: peptide inserted in a loop of an Fc
B13: SEQ ID NO: 171 (TPO-mimetic fusion protein of Table 13) (Fc fusion, not shown: a dimerising Fc or GST)
chain: WPMEGPTLRHWLAARAAR
modifications: also: Fc fusion, side and linker not given here
B14: SEQ ID NO: 139 (TPO-mimetic fusion protein of Table 13) (Fc fusion, not shown: a dimerising Fc or GST)
chain: DAIEGPTLRLWLEARRKQ
modifications: also: Fc fusion, side and linker not given here
B15: SEQ ID NO: 149 (TPO-mimetic fusion protein of Table 13) (Fc fusion, not shown: a dimerising Fc or GST)
chain: AWMEGPTLRHWLAARAAY
modifications: also: Fc fusion, side and linker not given here
B16: SEQ ID NO: 163 (TPO-mimetic fusion protein of Table 13) (Fc fusion, not shown: a dimerising Fc or GST)
chain: HPIEGPTLRLWLAARARA
modifications: also: Fc fusion, side and linker not given here

The assay has as its target human mpl receptor (human) (UniProt P40238). Kind of assay: cell-based or functional assay.
Turning to B1, the Pb EC50 worked out at 0.44 ng/mL. Molecule B2 yielded a Pb EC50 of 4.01 ng/mL.

B3 yielded a Pb EC50 of 1.09 ng/mL. With B4, the Pb EC50 was 0.27 ng/mL. With B5 the figure was 1.43 ng/mL and 1.81 ng/mL. With B6 the figure was 0.79 ng/mL; with B7, 1.83 ng/mL; with B8, 2.31 ng/mL. With B9 the figure was 3.1 ng/mL; with B10, 2.08 ng/mL. Regarding B11, the Pb EC50 was determined as 1.82 ng/mL.

B12 had a Pb EC50 of 0.28 ng/mL.

The molecule B13 registered a Pb EC50 of 1.56 ng/mL. Turning to B14, the Pb EC50 amounted to 1.89 ng/mL.

B15 showed a Pb EC50 of 1.84 ng/mL. With B16 the figure was 2.8 ng/mL.
